Reference: patent US11147875B2, “Compositions, combinations and related methods for photoimmunotherapy” (priority 2015, dated 2021)

Assays:
PD-L1 = assay: Effect of interferon gamma on PD-L1 expression, flow cytometry; assay type: cell-based; settings: 375 pg/mL, 37.5 ng/mL, 18 hours; BxPC3 cells
Protocol: BxPC3 cells were seeded in 12 well dishes at 145,000 cells per well, and placed at 37° C. in a 5% CO2 incubator. The following day, the cells were washed once with RPMI 1640 supplemented with 10% FBS and 1% Penicillin/Streptomyocin (complete culture media). The cells were then incubated for 18 hours with complete culture media alone, complete culture media containing 375 pg/mL of recombinant human Interferon Gamma (carrier free) (Cat No: 570202, BioLegend, San Diego, Calif.), or complete culture media containing 37.5 ng/mL recombinant human Interferon Gamma (carrier free). After the 18 hour incubation with or without recombinant interferon gamma, the BxPC3 cells were washed one time with complete culture media. […]
After the one hour incubation, the cells were washed three times with phosphate buffer saline (pH 7) and incubated with enzyme free cell dissociation buffer (Catalog No: S-014-C, EMD Millipore, Billerica, Mass.) until cells were detached. After the cells detached, phosphate buffer saline containing 0.5% bovine serum albumin fraction V (Catalog No: 15260-037, ThermoFisher Scientific, Waltham, Mass.) was added to the cells, and the samples were immediately analyzed by flow cytometry for PD-L1 expression based on the fluorescent signal from the IR700 dye of the anti-PD-L1-IRDye 700DX. […]

BxPC3 cells = assay: Effect of interferon gamma on cell death; assay type: cell-based; settings: 0 ng/mL to 3.75 μg/mL, 18 hours
Protocol: BxPC3 cells (#CRL-1687, ATCC, Manassas Va.) were seeded in 96 well black, clear-flat bottom dishes at 5000 cells per well, and placed in at 37° C., 5% CO2 incubator. The following day, the cells were washed once with RPMI 1640 supplemented with 10% FBS and 1% Penicillin/Streptomyocin (complete culture media). The cells were then incubated for 18 hours with complete culture media containing different concentrations of recombinant human Interferon Gamma (IFNgamma) (carrier free) (Cat No: 570202, BioLegend, San Diego, Calif.) ranging from 0 ng/mL to 3.75 μg/mL.
After 18 hours, the media containing different concentrations of interferon gamma was replaced with complete culture media containing 1× CellTox Green (Cat No: G8731, Promega, Madison, Wis.). […] The CellTox Green fluorescence signal was measured at 24.5 hours after light treatment using a fluorescence plate reader. The cells were then lysed with detergent, incubated at 37° C. for 30 minutes, and the CellTox Green fluorescence signal was measured again post lysis. The percent dead cells was calculated by taking the ratio between background (1× CellTox Green in complete culture media without cells) subtracted CellTox Green signal per well prior to and post lysis and multiplying the ratio by 100.

B1: IFNgamma: recombinant human Interferon Gamma (carrier free) (protein, UniProt P01579 24-161, looked up)
Interferon gamma: QDPYVKEAENLKKYFNAGHSDVADNGTLFLGILKNWKEESDRKIMQSQIVSFYFKLFKNFKDDQSIQKSVETIKEDMNVKFFNSNKKKRDDFEKLTNYSVTDLNVQRKAIHELIQVMAELSPAAKTGKRKRSQMLFRG
- PD-L1 expression (PD-L1): dose-dependent increase in PD-L1 expression
- cell death (BxPC3 cells): dose-dependent increase in cell death
